We go through 8 molecules from patent US20210155689A1 (SHANGHAI PHARMAEXPLORER, published 2021).

Test [1] has as its target T1, human LAG-3 ECD (antigen protein of the affinity test) (human, UniProt P18627 23-450).
T1 sequence: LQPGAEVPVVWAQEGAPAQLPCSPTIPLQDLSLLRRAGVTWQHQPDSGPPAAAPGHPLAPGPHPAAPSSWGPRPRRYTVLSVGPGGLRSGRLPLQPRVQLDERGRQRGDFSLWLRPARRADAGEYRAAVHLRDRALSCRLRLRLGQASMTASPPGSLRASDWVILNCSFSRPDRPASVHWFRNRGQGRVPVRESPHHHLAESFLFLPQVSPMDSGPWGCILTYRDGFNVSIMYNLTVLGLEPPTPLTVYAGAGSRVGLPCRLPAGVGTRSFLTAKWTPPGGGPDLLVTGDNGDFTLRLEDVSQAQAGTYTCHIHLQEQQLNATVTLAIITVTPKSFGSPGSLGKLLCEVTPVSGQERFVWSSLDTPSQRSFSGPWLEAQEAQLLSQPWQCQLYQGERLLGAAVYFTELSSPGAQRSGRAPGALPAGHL
Description: SPR, CM5 chip, antibody captured by anti-human Fc IgG, antigen in flow, 1:1 fit. The procedure:
First, anti-human Fc IgG was immobilized on the surface of the CM5 chip to 6000-10000 RU by amino coupling method, with FC1 as the reference channel. The coupling process was as follows: a freshly prepared 1:1 mixture of 50 mM NHS and 200 mM EDC was activated for 7 minutes, then injected with 10-50 ug/ml anti-human Fc IgG diluted in 10 mM sodium acetate ph5.0 buffer. The remaining activated sites were blocked with 1M ethanolamine. Then, HBS-EP+ buffer was used to dilute the antibody to be tested to 5 ug/ml (adjustable according to the capture level) and the antibodies were captured on the chip at a flow rate of 10 ul/min to obtain a response value of about 100˜300 RU. Then the antigen protein was diluted to 100 nM (the highest concentration was tentatively 100 nM), and flew through the chip surface at a flow rate of 30 ul/min. If enough signal value was obtained, the antigen-protein was diluted by several concentration gradients, and flew through the chip surface respectively. At the end of each cycle, the chip surface was regenerated with 10 mM Glycine at pH 1.5. The kinetic rate constant needed to be subtracted from the blank control, and the data was fitted with the global fit analysis method 1:1 combination model. The dissociation equilibrium rate constant (KD) was calculated according to the following formula: KD=kd/ka.

Test [2] deals with T2, hFc tagged monkey LAG-3 protein (cLAG-3-hFc protein) (monkey; human).
T2 construct: Made in HEK293 cells; also called monkey LAG-3 extracellular domain protein; not shown: human IgG Fc fragment (hFc) of the pCpC vector
T2 chain: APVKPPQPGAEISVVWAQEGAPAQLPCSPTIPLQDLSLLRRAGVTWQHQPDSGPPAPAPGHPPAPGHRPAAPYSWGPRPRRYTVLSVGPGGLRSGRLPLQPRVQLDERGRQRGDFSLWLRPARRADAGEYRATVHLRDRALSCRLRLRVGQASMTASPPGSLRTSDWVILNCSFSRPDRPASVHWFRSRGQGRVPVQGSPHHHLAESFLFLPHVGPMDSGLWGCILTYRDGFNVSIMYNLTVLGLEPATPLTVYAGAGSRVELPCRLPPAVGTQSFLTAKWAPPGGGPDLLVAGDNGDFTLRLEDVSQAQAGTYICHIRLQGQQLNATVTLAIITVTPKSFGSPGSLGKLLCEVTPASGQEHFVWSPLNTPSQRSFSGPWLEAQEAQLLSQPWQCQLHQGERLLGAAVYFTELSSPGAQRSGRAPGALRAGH
Nature of the test: ELISA, cLAG-3-hFc coated; 0.0667 nM. On the procedure:
(§1) The plate was sealed with plastic film and incubated overnight at 4° C. The plate was washed 2 times with the plate washing solution (PBS+0.01% Tween20) on the next day, and added with the blocking solution (PBS+0.01% Tween20+1% BSA) and blocked at room temperature for 1-2 hours. The blocking solution was poured out, and the plate was added with 50-100 μl of the antibody sample to be tested to each well, incubated at 37° C. for 1-2 hours, and washed 2-3 times with a plate washing solution (PBS+0.01% Tween20). HRP (horseradish peroxidase) labeled secondary antibody was added, and the plate was incubated at 37° C. for 1-2 hours, and washed 2-3 times with a plate washing solution (PBS+0.01% Tween20). 100 μl of TMB substrate was added to each well. After incubated at room temperature for 15-30 minutes, the plate was added with 100 μl of stop solution (1.0N HCl) to each well.
Background: An ELISA detects its analyte on a solid surface through an enzyme-linked reagent.

Test [3] deals with T3, human LAG-3 protein with hFc tag (hLAG-3-hFc protein) (human, UniProt P18627 23-450).
T3 construct: also called immunogen 1; LAG-3 extracellular domain protein; not shown: human IgG Fc fragment (hFc) of the pCpC vector
T3 sequence: T1 sequence
Description: ELISA, hLAG-3-hFc coated; 66.6670 nM. On the procedure:
as §1

Positions count from the first letter of the chain named.

B1: 556F6B8 mouse-human chimeric antibody (antibody, V domains shown)
VH: RVQLKQSGPGLVQPSQSLSITCTVSGFSLIKYGVHWVRQSPGEGLEWLGVIWRGGITDYNAAFMSRLSITKDNSKSQVFFKMNSLQADDTAIYYCAKWDGPLAMDYWGQGTSVTVSS
VL: DIVMTQSHKFLSTSVGDRVSITCKASQDVGTTVAWYQQKPGQSPKLLIYWASTRHTGVPDRFTGSGSGTDFTLTISNVQSEDLADYFCQQYSSYPYTFGGGTKLEIK
notes: also called mAb123-556F6B8; 556F8B8
One may read the Kd as the free concentration of one partner at which half of the binding sites on the other are occupied at equilibrium, for simple one-to-one binding. A word on the koff: it is a measure of how fast the partners let go of each other. As usually defined, the kon is a measure of how fast the partners come together. With B1, in test [1], the equilibrium dissociation constant (Kd) stood at 3.77 nM, the koff amounted to 0.000459 s⁻¹ and the kon stood at 122000 M⁻¹ s⁻¹.

B2: 556F6B8 (LAG-3 mouse-human chimeric antibody) (antibody, V domains shown)
VH: B1 VH
VL: B1 VL
notes: also called 556F8B8
With B2, the OD450 stood at 2.43 OD450 in test [2] and 3.69 OD450 in test [3].

B3: 105F1E10 mouse-human chimeric antibody (antibody, V domains shown)
VH: EVQLQQSGPELVKPGASVKMSCRASGYTFTDFKMHWMKQSHGKSLEWIGYIAPNNGGTAYNQKFRGKATLTVNESSNTAYMELRSLTSEDSAVYYCVDWDDVDYWGQGTTLTVSS
VL: DIKMTQSPSSMYASLGERVTITCKASQDINSYLSWFQQKSGKSPKTLIYRANRLVDGVPSRFSGSGSGQDYSLTISSLEYEDMGIYYCLQYVEFPLTFGAGTKLELK
notes: also called mAb009-105F1E10
For B3, in test [1], the Kd was determined as 2.51 nM, the off-rate constant (koff) was 9.66e-05 s⁻¹ and the kon is 38500 M⁻¹ s⁻¹.

B4: 105F1E10 (LAG-3 mouse-human chimeric antibody) (antibody, V domains shown)
VH: B3 VH
VL: B3 VL
Regarding B4, the OD450 was determined as 1 OD450 in test [2] and 3.6 OD450 in test [3].

B5: 405B8H3 mouse-human chimeric antibody (antibody, V domains shown)
VH: QVQLQQSGAELVRPGASVTLSCKASGYTFTDYEMHWVKQTPVHGLEWIGATDPETGNSAYNQKFKGKAIMTADKSSSTAYMELRSLTSEDSAVYYCISTGWNDWGQGTSLTVSS
VL: B3 VL with S40P, N52D, V55L, E81G, V92D, L96Y, A100G, L106I
notes: also called mAb103-405B8H3
Consider B5, for which, in test [1], the Kd was 1.96 nM, the koff worked out at 0.000158 s⁻¹ and the kon is 80400 M⁻¹ s⁻¹.

B6: 405B8H3 (LAG-3 mouse-human chimeric antibody) (antibody, V domains shown)
VH: B5 VH
VL: B3 VL with S40P, N52D, V55L, E81G, V92D, L96Y, A100G, L106I
notes: also called mouse-human chimeric antibody 405B8H3
For the molecule B6, the OD450 came to 1.96 OD450 in test [2] and 3.57 OD450 in test [3].

B7: 409B11E12 (LAG-3 mouse-human chimeric antibody) (antibody, V domains shown)
VH: B5 VH with P41T, G56S, N57Y, M70L, S98A
VL: B3 VL with I2L, S40P, V55L, V92D, L96Y, A100G, L106I
B7: the figures for the OD450 in test [2] and in test [3] were 1.91 OD450 and 3.59 OD450, respectively.

B8: 409D4E10 (LAG-3 mouse-human chimeric antibody) (antibody, V domains shown)
VH: B5 VH with Y27N, G56D, S58T, M70L, A72T, S98T, T99S
VL: B3 VL with S40P, V55L, V92N, L96Y, A100G, L106I
Take B8: the figures for the OD450 in test [2] and in test [3] were 3.05 OD450 and 3.73 OD450, respectively.
